Article doi:10.1101/388728

Legend:
[1] = biological target: His6-TRX-PfPPR1 (Plasmodium falciparum apicoplast pentatricopeptide repeat protein 1, with His6-TRX tag) (Plasmodium falciparum); assay: SEC
[2] = biological target: PfPPR1 minus the His6-TRX tag (tag cleaved by HRV 3C protease) (Plasmodium falciparum); assay: AUC

Substance | stoichiometry N [1] | stoichiometry N [2]
His6-TRX-PfPPR1 (Plasmodium falciparum apicoplast pentatricopeptide repeat protein 1, with His6-TRX tag) (natural protein) | 2 | –
PfPPR1 minus the His6-TRX tag (tag cleaved by HRV 3C protease) (natural protein) | – | 2
